The target of data set [1] is T1, acidic fibroblast growth factor (aFGF) (UniProt P05230 16-155, limits assumed). Nature of the data set: microplate thermal shift assay, turbidity signal, 50 µM ligand.
Data set [2] concerns the target T1, acidic fibroblast growth factor (aFGF). The experiment in a line: microplate thermal shift assay, turbidity signal; Kd at 298 K estimated with equation (3).
Data set [3] shares this target. The experiment in a line: microplate thermal shift assay, turbidity signal; Kd at Tm (322.15 K) calculated with equation (1).
The target of data set [4] is human α-thrombin (human), P00734. The experiment in a line: microplate thermal shift assay, 1,8-ANS fluorescence, 50 µM ligand, single ligand.
Data set [5] shares this target. Nature of the data set: microplate thermal shift assay; Kd at Tm of Hirugen for thrombin with 50 µM 3dp-4660 present.
Data set [6] has the same target. The experiment in a line: microplate thermal shift assay; Kd at 298 K of Hirugen for thrombin with 50 µM 3dp-4660 present.
Data set [7] shares this target. Nature of the data set: microplate thermal shift assay; Kd at Tm of Hirugen for thrombin with 200 µM heparin 5000 present.
Data set [8] shares this target. The experiment in a line: microplate thermal shift assay; Kd at 298 K of Hirugen for thrombin with 200 µM heparin 5000 present.
Data set [9] shares this target. Nature of the data set: microplate thermal shift assay; 50 µM Hirugen added to thrombin with 50 µM 3dp-4660 present, shift against TH/3dp-4660.
For data set [10] the target is unchanged. The experiment in a line: microplate thermal shift assay; 50 µM Hirugen added to thrombin with 200 µM heparin 5000 present, shift against TH/heparin 5000.

Our source for the ΔTm and Kd values is US6849458 (dated 2005).

T1 sequence (P05230 16-155 limits assumed): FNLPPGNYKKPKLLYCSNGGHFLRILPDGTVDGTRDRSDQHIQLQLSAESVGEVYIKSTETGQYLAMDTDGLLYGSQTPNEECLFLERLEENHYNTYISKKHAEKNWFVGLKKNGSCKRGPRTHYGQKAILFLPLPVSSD

As usually defined, the Kd is the free concentration of one partner at which half of the binding sites on the other are occupied at equilibrium, for simple one-to-one binding. EEEEEEEE: in [1], the ΔTm was 5 ° K. For the same molecule, the values for the Kd in data set [2] and in data set [3] were 3040 nM and 10100 nM, respectively.

Turning to EEEEE, in [1], the ΔTm was 0 ° K.

DGDFEEIPEEYL (modifications not checked) [Hirugen (hirudin 53-64), P01050 53-64]: the ΔTm in [4] is 5.8 ° K; in [9], 4.6 ° K; in [10] it was 2.6 ° K. The equilibrium dissociation constant (Kd) amounted to 731 nM in data set [5], 54 nM in data set [6], 4250 nM in data set [7] and 478 nM in data set [8].
